Test [1] has as its target T1, cynomolgus LAG-3 on 293F cells (cynomolgus monkey).
T1 construct: whole, on cells; also called 食蟹猴LAG-3; 细胞表面食蟹猴LAG-3
Nature of the test: FACS on 293F cells expressing cynomolgus LAG-3.

In the next test the target is T2, human CD4 (human, UniProt P01730 26-390, limits assumed).
T2 construct: also called 人CD4蛋白
Nature of the test: ELISA, plate coated with 1 μg/mL human CD4.

For test [2], the target named is T3, mouse LAG-3 on Flp-In-CHO cells (mouse, UniProt Q61790 24-521).
T3 construct: whole, on cells; also called 鼠LAG-3; 细胞表面小鼠LAG-3
T3 sequence (looked up): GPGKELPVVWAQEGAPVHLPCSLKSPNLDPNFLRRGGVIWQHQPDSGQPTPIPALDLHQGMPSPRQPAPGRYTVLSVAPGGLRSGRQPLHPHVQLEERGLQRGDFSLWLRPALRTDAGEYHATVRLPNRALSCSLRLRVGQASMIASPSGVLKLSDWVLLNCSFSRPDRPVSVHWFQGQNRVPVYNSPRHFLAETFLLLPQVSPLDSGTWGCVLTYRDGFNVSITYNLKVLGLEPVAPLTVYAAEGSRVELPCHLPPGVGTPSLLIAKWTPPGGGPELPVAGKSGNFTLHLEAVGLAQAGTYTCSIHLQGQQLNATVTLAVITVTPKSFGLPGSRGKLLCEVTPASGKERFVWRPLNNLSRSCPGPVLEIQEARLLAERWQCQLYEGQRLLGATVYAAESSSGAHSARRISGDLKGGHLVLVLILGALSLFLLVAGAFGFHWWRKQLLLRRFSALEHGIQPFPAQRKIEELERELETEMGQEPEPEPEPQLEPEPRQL
Briefly: FACS on Flp-In-CHO cells expressing mouse LAG-3.

Test [3] has as its target T4, human LAG-3, full length, on transfected cells (human, UniProt P18627 23-525).
T4 sequence: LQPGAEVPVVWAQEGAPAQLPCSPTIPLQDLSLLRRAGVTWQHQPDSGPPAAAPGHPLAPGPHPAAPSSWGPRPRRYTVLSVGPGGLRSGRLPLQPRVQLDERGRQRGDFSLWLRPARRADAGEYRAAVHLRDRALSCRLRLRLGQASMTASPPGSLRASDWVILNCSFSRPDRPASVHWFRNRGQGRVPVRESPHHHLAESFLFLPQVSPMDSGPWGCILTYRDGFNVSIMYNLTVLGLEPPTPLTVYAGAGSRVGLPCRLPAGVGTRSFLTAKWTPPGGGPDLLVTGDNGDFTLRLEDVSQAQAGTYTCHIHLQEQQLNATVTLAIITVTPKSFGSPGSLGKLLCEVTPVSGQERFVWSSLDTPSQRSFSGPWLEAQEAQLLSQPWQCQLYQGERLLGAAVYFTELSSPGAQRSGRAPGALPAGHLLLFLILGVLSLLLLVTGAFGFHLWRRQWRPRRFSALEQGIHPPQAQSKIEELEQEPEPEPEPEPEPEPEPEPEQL
Briefly: cell-based or functional assay.

This note sets out measurements from CN115057931A (GUANGZHOU YUHENG BIOTECHNOLOGY CO LTD, dated 2022).

B1: 1.53.3-uAb-IgG4k (antibody, V domains shown)
VH: QVQLQQWGAGLLKPSETLSLTCGVYGGSFSGYYWSWIRQPPGMGLEWIGEINHRGNTNYNPSLKSRVTISEDTSKNQFSLRLSSVTAADTAVYFCTRGEDYSDYDYYGDFWGQGTLVTVSS
VL: EIVLTQSPATLSLSQGERATLSCRASQSISSYLAWYQQKPGQAPRLLIYAASNRATGIPARFSGSGSGTDFTLTISSLEPEDFAIYYCQQRSNWPLTFGGGTKVEIK
notes: Fully human antibody from OMT rats; the other pair 15/16 goes with CDRs 7-12 in CLM-00002
Regarding B1, in test [1], a half-maximal response (EC50) required 4.01 nM. In addition, the binding result with human CD4 is “no binding (tested: 1μg/mL)”; in test [2] it was “no binding”. For the same molecule, in test [3], the “EC50(nM), IL-2 luciferase reporter in Jurkat cells expressing human LAG-3 with Raji cells and SEE” value came to 1.07 nM.

B2: 3.40.19-uAb-IgG4L (antibody, V domains shown)
VH: QLQLQESGPGLVKPSETLSLTCTVSGDSISSTSYYWGWIRQPPGKGLEWIGSFYYSGSTYYNPSLKSRVTISVDTSKNQFSLKLNSVTAADTAVYYCARMQLWSYDVDVWGQGTTVTVSS
VL: QSALTQPASVSGSPGQSITISCTGTSSDVGGYDYVAWYQQHPGKVPKLMIYDVSERPSGVSNRFSGSKSGNTASLTISGLQAEDEADYYCSSYTSTTTLVVFGGGTKLSVL
notes: Fully human antibody from OMT rats; also called 3.40.19-uAb-hIgG4L
B2: in test [1], the EC50 came to 3.92 nM. In addition, the binding result with human CD4 is given as “no binding (tested: 1μg/mL)”. For the same molecule, the “EC50(nM), IL-2 luciferase reporter in Jurkat cells expressing human LAG-3 with Raji cells and SEE” value in test [3] is 0.21 nM.
